Target: T1, MAGE-A2 peptide on HLA-DPA1*01:03 / HLA-DPB1*04:01 (human)
T1 peptide: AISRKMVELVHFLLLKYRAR
Assay: multimer staining

B1: 06-MAGE-A2108-127 TCR (TCR, V domains shown)
Valpha: QKVTQAQTEISVVEKEDVTLDCVYETRDTTYYLFWYKQPPSGELVFLIRRNSFDEQNEISGRYSWNFQKSTSSFNFTITASQVVDSAVYFCALSVGTYKYIFGTGTRLKVLA
Vbeta: DTGVSQNPRHKITKRGQNVTFRCDPISEHNRLYWYRQTLGQGPEFLTYFQNEAQLEKSRLLSDRFSAERPKGSFSTLEIQRTEQGDSAMYLCASSPGTGGRETQYFGPGTRLLVL
B1: recognises.
